What was measured:
KRAS(G12D), GDP-bound = biological target: T1, KRAS(G12D), GDP-bound (Meleagris gallopavo (Wild turkey), UniProt P79800 1-174, GDP bound non-covalently; biotin on the N-terminal Avi-tag, and the tag is not in the letters); assay: yeast display titration, flow cytometry
T1 construct: Same protein as m17, loaded with GDP

KRAS(G13D), GDP-bound = biological target: T2, KRAS(G13D), GDP-bound (Meleagris gallopavo (Wild turkey), UniProt P79800 1-174, GDP bound non-covalently; biotin on the N-terminal Avi-tag, and the tag is not in the letters); assay: yeast display titration, flow cytometry
T2 construct: Same protein as m19, loaded with GDP

KRAS(G13D), GTPγS-bound = biological target: T3, KRAS(G13D), GTPγS-bound (Meleagris gallopavo (Wild turkey), UniProt P79800 1-174, GTPγS bound non-covalently; biotin on the N-terminal Avi-tag, and the tag is not in the letters); assay: yeast display titration, flow cytometry
T3 construct: Loaded with GTPγS; tagged and biotinylated in the yeast-display assay

KRAS(G12D), GTPγS-bound = biological target: T4, KRAS(G12D), GTPγS-bound (Meleagris gallopavo (Wild turkey), UniProt P79800 1-174, GTPγS bound non-covalently; biotin on the N-terminal Avi-tag, and the tag is not in the letters); assay: yeast display titration, flow cytometry
T4 construct: Loaded with GTPγS; tagged and biotinylated in the yeast-display assay

[1] = biological target: KRAS(G12V) in cells (endogenous in PATU8902 and H441) (UniProt P01116-2 1-185, limits assumed)

B1: Monobody 12VC1 (designed binder)
chain: VSSVPTKLEVVAATPTSLLISWDAPAVTVFFYVITYGETGHGVGAFQAFKVPGSKSTATISGLKPGVDYTITVYARGYSKQGPYKPSPISINYRT
- binding result (KRAS(G12D), GDP-bound): no binding (tested: 100 nM)
- binding result (KRAS(G13D), GDP-bound): no binding (tested: 100 nM)
- binding result (KRAS(G13D), GTPγS-bound): no binding (tested: 100 nM)
- binding result (KRAS(G12D), GTPγS-bound): no binding (tested: 100 nM)
- FoldChange [1]: 1360

Reference: patent US20220177531A1 (NEW YORK UNIVERSITY, published 2022)
